{"source": "patent EP2254592B1", "target": "purified folded MHC-complex (Example 57)", "assay": "sandwich ELISA, W6/32 coated, HRP anti-β2m detection, OD450"}
{"substance": "W6/32 mouse-anti-HLA-ABC antibody (Dako M0736)", "values": [{"measurement": "OD450 ratio to the negative control β2m", "result": "> 6", "unit": "fold"}]}
